This series deals with the molecule itself. The series is described as follows: native gel or EMSA. (In general: A gel shift assay detects complexes by their altered migration in electrophoresis.)

B1: FLAG-Pex14p(156–376)SD (domain or fragment, rat, UniProt Q642G4 156-376, looked up)
chain: SGSVAQTVTQVQTTLASVQELLRQQQQKVQELAHELAAAKATTSTNWILESQNINELKSEINSLKGLLLNRRQFPPDPSAPKIPSWQIPVKSPSPSSPAAVNHHSSSDISPVSNESPSSSPGKDGHSPEGSTATYRLLGPQEEGEGVVDVKGQVRMEVQGEEEKREDEEGEEDEDDDVSHVDEEDVLGVQREDRRGGDGQINEQVEKLRRPEGASNESERD
On to B1, for which the “fold formation of homo-oligomer against WT or SA mutant” value was roughly 1.5 fold.

The values above are taken from article PMC7659713 (The Journal of Cell Biology, 2020).
